Here are results for 116 sequences from the supplement of paper PMC10724198.

± gives the standard deviation of the averaged measurements.
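Note: PSI is a weighted mean of sequencing reads over stability bins, variants kept only with over 10 reads, mCherry proximal and sfGFP distal, peptide attached via GGGS linker.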

The test system of the series is Saccharomyces cerevisiae. As to the kind of experiment: protein stability index of tFT-peptide fusion (C-terminal peptide) (PSI (0-1 scale)); higher = more stable (slower turnover). Particulars: genetic background: wild type; temperature: 30 C.
Consider LLSPLRPPPFAP, for which the protein stability index stood at 0.698 ± 0.041. With LLSVFPLHPGSP the figure was 0.73 ± 0.047; with LLVLHVFPLASH, 0.553 ± 0.035; with LLVLSTVFNYPI, 0.655 ± 0.071. With LLWPVFQCLPLL the figure was 0.729 ± 0.045. Under LLYPRYFSTGIT stands 0.558 ± 0.065. Sequence LMHDIRLCSSVV came in with a protein stability index of 0.702 ± 0.074. Under LMLSGFGSFCVA stands 0.659 ± 0.025. Under LMRFFSCTLSFE stands 0.62535 ± 0.00026. Under LMRSFLHFHLCL stands 0.632 ± 0.01; under LMVCQKPYCMRI, 0.678 ± 0.0014; under LNLISGVRFSLY, 0.675 ± 0.043. LNQHEQKRKNEG registered a protein stability index of 0.724 ± 0.098. Under LNRTLCYKCILR stands 0.564 ± 0.018; under LNSTDMNKKKFK, 0.719 ± 0.0092; under LPAEGSTKSRSY, 0.741 ± 0.055. Under LPAPLLSPPRHF stands 0.746 ± 0.072; under LPARSLPPPRPP, 0.653 ± 0.0089; under LPASSPTEYPPP, 0.713 ± 0.049. LPFFFPPFFITR yielded a protein stability index of 0.532 ± 0.013. The sequence LPFLLPLVTPLP returned a protein stability index of 0.696 ± 0.068. With LPFPPSPPLPSP the figure was 0.57 ± 0.0099.

LPGFTLPSSPSH came in with a protein stability index of 0.702 ± 0.034.

With LPGGLSPPPFRI, the protein stability index is 0.715 ± 0.064. Under LPGTVELHSSRL stands 0.755 ± 0.022; under LPHPRLPSPPGP, 0.6858 ± 0.0056.

As to LPILPSPLPPPL, the protein stability index worked out at 0.69 ± 0.049. LPIPCPSPPPPR had a protein stability index of 0.708 ± 0.052. With LPLPPRFRRLYL the figure was 0.7 ± 0.038.

For the sequence LPLPVLPCVPPV, the protein stability index turned out to be 0.595 ± 0.028. Sequence LPLQYPPSLLRL yielded a protein stability index of 0.6655 ± 0.0065. Under LPLRVPPPPSSH stands 0.743 ± 0.085; under LPLSGIETSVSR, 0.683 ± 0.03; under LPLSSLLRPRHS, 0.684 ± 0.056. With LPNLCRLISFGS the figure was 0.646 ± 0.036; with LPPAPLLSLPSL, 0.6921 ± 0.0034; with LPPCSPLIFYFH, 0.636 ± 0.032. Regarding LPPHSAPLAHGP, the protein stability index worked out at 0.714 ± 0.065. LPPLAACAPSAV came in with a protein stability index of 0.615 ± 0.051. With LPPLAPAPPTTS the figure was 0.617 ± 0.0065; with LPPLLAPPVSPL, 0.698 ± 0.039; with LPPPLPPATPPP, 0.675 ± 0.16. As for LPPPPPSSSPSP, the protein stability index is 0.7005 ± 0.0067. With LPPPPRPLPPSP the figure was 0.696 ± 0.04; with LPPPPSFTSPHL, 0.743 ± 0.12; with LPPPSLPPLPLF, 0.728 ± 0.065. In turn, LPPPSPGLPLSP had a protein stability index of 0.6773 ± 0.0059. In the case of LPPRAPPTCFPL, the protein stability index turned out to be 0.658 ± 0.12. Under LPPRPPPPPPPA stands 0.62606 ± 2.4e-05.

In the case of LPPRPTPPPPPP, the protein stability index is 0.71 ± 0.056. With LPPSNYPCPSGK the figure was 0.706 ± 0.02. In turn, LPPSPPDPTPPP had a protein stability index of 0.594 ± 0.0095. LPPSQLPPPHLT had a protein stability index of 0.662 ± 0.019. With LPPSTSPPIRPP, the protein stability index came out at 0.663 ± 0.043. With LPPTAPAPPSPP, the protein stability index turned out to be 0.716 ± 0.086. For the sequence LPPTLPPPPPAL, the protein stability index worked out at 0.724 ± 0.032.

The sequence LPQAVPCRTPPL registered a protein stability index of 0.679 ± 0.054. LPQLPNSRRLPL returned a protein stability index of 0.648 ± 0.049. With LPQSSRKEAHHH the figure was 0.78 ± 0.062; with LPRELFSQQRFL, 0.713 ± 0.0097.

In turn, LPRLSPSPRPSR returned a protein stability index of 0.719 ± 0.008. Under LPRPPLLTPSCL stands 0.746 ± 0.06; under LPRSAPLHFPAC, 0.688 ± 0.02. In turn, LPSCKVSLASLL came in with a protein stability index of 0.6281 ± 0.0035. With LPSLFSPPLFPL the figure was 0.702 ± 0.0017; with LPSPPASSPRRS, 0.684 ± 0.025. On to LPVDPDTIIVVK, for which the protein stability index turned out to be 0.663 ± 0.019. In turn, LPVFVIGEFLLV returned a protein stability index of 0.49 ± 0.037. Consider LQEQIHKPPKPQ, for which the protein stability index amounted to 0.72 ± 0.00088. With LRAPFGWVKRFL the figure was 0.663 ± 0.069; with LRFGGWFLIGLR, 0.583 ± 0.021. With LRGPRRAVEGTP, the protein stability index worked out at 0.66 ± 0.031. LRIAKSGVGGFA showed a protein stability index of 0.636 ± 0.029. Under LRISIEVTNYGP stands 0.517 ± 0.021; under LRIYIKTGAKGV, 0.71448 ± 0.00053. LRKAKRDKRIKI: the protein stability index amounted to 0.759 ± 0.075. Under LRKDVRTRSNTK stands 0.806 ± 0.051. With LRKGGGVGVWRG the figure was 0.687 ± 0.012; with LRLCPAPYIPVL, 0.591 ± 0.012. In the case of LRLDFPPARPHS, the protein stability index is 0.697 ± 0.044. Sequence LRLLCRTRCYRS returned a protein stability index of 0.666 ± 0.019. Under LRLPKGVSLVDI stands 0.6093 ± 0.0053. Under LRLPPPLCPLRS stands 0.623 ± 0.054.

Turning to LRLPSHHPLCYF, the protein stability index came to 0.684 ± 0.011. On to LRPCAGAVRPSA, for which the protein stability index amounted to 0.724 ± 0.0099. The sequence LRPGVRHFRECV had a protein stability index of 0.627 ± 0.096. With LRPLVRLLHSYP the figure was 0.718 ± 0.031; with LRPPPPSAGAPP, 0.708 ± 0.088.

The sequence LRRPVDPSHIPI had a protein stability index of 0.663 ± 0.07. Under LRRRGHCLRGEL stands 0.6313 ± 0.0023; under LRRTMRLASASF, 0.831 ± 0.014; under LRSCLSIYDCSS, 0.618 ± 0.16.

Take LRSHKIVDQDPF: the protein stability index amounted to 0.7235 ± 0.005. Under LRSPFPTPSDLV stands 0.714 ± 0.051. Sequence LRSPSDSLALPL returned a protein stability index of 0.666 ± 0.028. Under LRVGMWNNVINR stands 0.734 ± 0.12; under LRVVISWGLDLY, 0.529 ± 0.02. Under LRWFLTGWPRGE stands 0.699 ± 0.16; under LRYARAPFPAPP, 0.699 ± 0.024; under LSARIGEMVDTW, 0.56 ± 0.027.

For LSARSSFIFSYY, the protein stability index is 0.645 ± 0.017. With LSDGATDIGCLL the figure was 0.741 ± 0.037; with LSDKTALDRPVH, 0.625 ± 0.057. The sequence LSDMNHVLKVFL had a protein stability index of 0.665 ± 0.054. Turning to LSEFFLSAFLSC, the protein stability index worked out at 0.712 ± 0.011. With LSFFGPPFPISF, the protein stability index was determined as 0.74 ± 0.043. In turn, LSFPFLFSVPFL returned a protein stability index of 0.733 ± 0.021. In turn, LSGCASGYRPPW showed a protein stability index of 0.683 ± 0.047.

LSGGAVVEVHFL returned a protein stability index of 0.674 ± 0.011. With LSGLLGGGAGTL the figure was 0.678 ± 0.013; with LSGLVPSLGCRR, 0.786 ± 0.06; with LSGPPVSVQRSF, 0.594 ± 0.03. LSGYLVCSLSLR: the protein stability index was 0.695 ± 0.045. With LSIIRSPDWVDC the figure was 0.639 ± 0.059. Under LSLDMVAPTGLA stands 0.686 ± 0.014; under LSLPTLPLPPPS, 0.7173 ± 0.006.
